The results in this text go back to US20080044360A1.

Experiment [1] deals with rat collagen, acid soluble, type I, rat tail (Upstate 08-115) (rat) (UniProt P02454). Put plainly: dried collagen assay.
Experiment [2] has as its target human collagen type I, acid soluble, extracted from placenta (Sigma C7774) (human) (UniProt P02452). In words: dried collagen assay.

Bridge positions count the residues as written; N and C are the ends. Square brackets hold non-standard residues; d marks the D form. Primed or numbered codes have the meaning given here. Side chains are listed from the residue outwards. Ends that are not written are not given here. * marks the point of attachment. Phe(3,4-(OMe)2) = COc1ccc(C[C@H](N)C(=O)O)cc1OC; Phe(4-CN) = N#Cc1ccc(C[C@H](N)C(=O)O)cc1; Dip = N[C@H](C(=O)O)C(c1ccccc1)c1ccccc1; Phe(4-NH2) = Nc1ccc(C[C@H](N)C(=O)O)cc1; Gd^T(3) = GdDTPA attached via thiourea; d1Nal = N[C@H](Cc1cccc2ccccc12)C(=O)O; Pen = CC(C)(S)[C@H](N)C(=O)O; Gd^T = not defined here; Gd^T″ = GdDTPA-thiourea; Cbz = O=C(OCc1ccccc1)*

Sequence of rat collagen, acid soluble, type I, rat tail (Upstate 08-115) (rat) (P02454 152-1207, chain 1 of 2): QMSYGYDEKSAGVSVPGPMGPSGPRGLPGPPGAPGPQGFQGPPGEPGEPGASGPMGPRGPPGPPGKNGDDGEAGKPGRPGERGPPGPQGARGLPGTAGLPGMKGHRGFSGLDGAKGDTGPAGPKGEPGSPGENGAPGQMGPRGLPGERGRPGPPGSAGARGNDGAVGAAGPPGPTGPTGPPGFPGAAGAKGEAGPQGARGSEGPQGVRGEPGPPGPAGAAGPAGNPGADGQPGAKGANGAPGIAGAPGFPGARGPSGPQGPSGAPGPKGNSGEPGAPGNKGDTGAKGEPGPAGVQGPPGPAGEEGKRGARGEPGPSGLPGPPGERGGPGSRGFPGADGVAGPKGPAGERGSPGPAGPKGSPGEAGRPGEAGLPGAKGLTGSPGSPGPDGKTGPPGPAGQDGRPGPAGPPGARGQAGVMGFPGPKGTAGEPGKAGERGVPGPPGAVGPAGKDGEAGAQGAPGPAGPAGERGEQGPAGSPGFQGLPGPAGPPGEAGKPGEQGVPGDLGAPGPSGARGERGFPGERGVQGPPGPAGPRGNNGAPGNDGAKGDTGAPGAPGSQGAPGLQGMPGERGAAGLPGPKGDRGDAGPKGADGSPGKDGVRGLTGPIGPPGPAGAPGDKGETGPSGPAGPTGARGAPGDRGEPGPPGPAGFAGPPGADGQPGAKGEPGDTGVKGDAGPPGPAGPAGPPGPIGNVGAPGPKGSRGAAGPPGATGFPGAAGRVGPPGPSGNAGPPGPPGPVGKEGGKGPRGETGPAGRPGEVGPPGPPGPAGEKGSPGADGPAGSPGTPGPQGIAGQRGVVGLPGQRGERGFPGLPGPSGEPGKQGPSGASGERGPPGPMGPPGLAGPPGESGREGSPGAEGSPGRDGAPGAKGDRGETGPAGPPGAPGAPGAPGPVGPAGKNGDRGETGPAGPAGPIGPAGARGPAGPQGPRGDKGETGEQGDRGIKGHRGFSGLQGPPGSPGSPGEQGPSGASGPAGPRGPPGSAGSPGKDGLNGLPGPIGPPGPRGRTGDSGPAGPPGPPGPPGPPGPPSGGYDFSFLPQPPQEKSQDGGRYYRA
Sequence of rat collagen, acid soluble, type I, rat tail (Upstate 08-115) (rat) (P02466 86-1125, chain 2 of 2, further chain): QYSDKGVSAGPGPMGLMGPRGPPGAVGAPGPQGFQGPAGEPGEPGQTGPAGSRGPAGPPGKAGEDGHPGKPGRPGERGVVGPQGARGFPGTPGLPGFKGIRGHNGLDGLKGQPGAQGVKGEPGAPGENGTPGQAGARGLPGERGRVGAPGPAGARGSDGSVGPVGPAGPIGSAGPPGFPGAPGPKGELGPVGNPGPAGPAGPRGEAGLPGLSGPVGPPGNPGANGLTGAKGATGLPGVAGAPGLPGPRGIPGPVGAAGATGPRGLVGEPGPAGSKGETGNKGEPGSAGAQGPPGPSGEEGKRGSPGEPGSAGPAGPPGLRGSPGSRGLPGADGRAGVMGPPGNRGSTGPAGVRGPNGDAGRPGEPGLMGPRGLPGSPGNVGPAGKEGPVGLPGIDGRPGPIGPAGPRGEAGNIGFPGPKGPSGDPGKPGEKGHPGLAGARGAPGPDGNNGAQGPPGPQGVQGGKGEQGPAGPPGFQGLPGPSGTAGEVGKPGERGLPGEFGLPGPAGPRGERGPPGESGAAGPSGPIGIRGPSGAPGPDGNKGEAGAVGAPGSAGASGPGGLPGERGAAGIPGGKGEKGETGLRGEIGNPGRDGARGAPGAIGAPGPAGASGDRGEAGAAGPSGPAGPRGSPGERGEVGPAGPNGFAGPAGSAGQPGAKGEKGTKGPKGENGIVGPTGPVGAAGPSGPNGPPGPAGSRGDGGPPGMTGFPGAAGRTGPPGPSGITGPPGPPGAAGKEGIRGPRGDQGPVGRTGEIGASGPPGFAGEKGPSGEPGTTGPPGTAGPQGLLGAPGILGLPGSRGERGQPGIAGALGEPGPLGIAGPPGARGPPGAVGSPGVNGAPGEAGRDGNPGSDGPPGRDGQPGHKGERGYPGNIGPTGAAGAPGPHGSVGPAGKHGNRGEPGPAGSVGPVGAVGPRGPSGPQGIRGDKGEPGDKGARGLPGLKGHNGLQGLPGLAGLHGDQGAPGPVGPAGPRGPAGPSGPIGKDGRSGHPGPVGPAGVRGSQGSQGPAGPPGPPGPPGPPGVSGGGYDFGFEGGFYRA
Sequence of human collagen type I, acid soluble, extracted from placenta (Sigma C7774) (human) (P02452 162-1218 limits assumed, chain 1 of 2): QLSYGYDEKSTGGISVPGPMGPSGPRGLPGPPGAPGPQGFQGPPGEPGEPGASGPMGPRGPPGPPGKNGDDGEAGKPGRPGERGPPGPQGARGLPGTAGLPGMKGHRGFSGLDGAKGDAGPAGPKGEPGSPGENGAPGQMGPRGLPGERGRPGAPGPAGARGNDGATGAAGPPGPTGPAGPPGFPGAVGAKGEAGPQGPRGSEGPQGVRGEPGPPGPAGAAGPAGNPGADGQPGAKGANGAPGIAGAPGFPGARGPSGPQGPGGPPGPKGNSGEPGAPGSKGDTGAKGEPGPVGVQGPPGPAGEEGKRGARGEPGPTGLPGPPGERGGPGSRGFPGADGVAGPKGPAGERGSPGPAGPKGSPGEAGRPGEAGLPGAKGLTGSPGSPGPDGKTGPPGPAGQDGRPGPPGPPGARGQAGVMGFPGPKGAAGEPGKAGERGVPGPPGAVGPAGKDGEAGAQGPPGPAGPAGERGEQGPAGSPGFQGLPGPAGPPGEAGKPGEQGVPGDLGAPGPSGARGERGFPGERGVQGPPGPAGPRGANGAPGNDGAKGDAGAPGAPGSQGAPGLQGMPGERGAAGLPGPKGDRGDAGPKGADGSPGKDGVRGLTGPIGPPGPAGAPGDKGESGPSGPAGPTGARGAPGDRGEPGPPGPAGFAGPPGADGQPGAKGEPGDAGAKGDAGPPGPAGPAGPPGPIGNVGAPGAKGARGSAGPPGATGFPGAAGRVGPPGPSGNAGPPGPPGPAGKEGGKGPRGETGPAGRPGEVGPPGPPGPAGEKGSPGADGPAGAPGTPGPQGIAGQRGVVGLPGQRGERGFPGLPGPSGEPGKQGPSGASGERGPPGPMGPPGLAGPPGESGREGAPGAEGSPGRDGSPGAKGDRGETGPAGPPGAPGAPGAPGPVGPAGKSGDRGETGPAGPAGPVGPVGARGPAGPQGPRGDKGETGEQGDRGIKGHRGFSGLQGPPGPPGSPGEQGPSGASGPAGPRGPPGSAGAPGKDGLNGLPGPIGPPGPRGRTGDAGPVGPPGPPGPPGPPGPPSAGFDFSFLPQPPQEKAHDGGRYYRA
Sequence of human collagen type I, acid soluble, extracted from placenta (Sigma C7774) (human) (P08123 80-1119 limits assumed, chain 2 of 2, further chain): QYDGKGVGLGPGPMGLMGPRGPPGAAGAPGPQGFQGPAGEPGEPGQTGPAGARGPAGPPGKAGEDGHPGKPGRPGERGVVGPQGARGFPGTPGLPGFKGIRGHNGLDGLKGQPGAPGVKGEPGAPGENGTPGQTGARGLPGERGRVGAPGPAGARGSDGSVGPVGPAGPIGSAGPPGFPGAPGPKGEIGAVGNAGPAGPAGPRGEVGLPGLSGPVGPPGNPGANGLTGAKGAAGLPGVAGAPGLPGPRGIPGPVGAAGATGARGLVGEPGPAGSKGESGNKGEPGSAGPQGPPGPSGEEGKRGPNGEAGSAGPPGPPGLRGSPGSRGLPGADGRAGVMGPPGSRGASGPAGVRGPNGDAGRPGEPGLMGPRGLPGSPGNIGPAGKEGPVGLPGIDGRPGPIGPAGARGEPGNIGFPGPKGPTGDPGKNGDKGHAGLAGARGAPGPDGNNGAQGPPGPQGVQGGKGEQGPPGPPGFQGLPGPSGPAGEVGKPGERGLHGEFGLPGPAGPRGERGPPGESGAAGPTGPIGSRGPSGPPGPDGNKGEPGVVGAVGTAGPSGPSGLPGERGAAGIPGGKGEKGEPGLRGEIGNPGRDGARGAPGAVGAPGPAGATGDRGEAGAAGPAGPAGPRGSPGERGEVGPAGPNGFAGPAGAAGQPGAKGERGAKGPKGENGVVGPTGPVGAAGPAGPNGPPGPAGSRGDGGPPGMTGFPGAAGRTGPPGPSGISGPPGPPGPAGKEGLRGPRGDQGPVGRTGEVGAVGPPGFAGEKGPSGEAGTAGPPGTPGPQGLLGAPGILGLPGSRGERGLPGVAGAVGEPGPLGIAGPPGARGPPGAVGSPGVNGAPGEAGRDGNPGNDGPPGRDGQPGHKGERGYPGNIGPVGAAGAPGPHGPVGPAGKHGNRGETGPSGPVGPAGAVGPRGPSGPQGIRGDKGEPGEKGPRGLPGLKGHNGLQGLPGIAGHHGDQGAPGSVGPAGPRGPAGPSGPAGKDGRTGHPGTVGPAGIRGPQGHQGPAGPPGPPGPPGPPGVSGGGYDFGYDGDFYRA

For YHACYQAGCWAW (disulfide 4-9 (inferred)) [SEQ ID NO 137], the % bound in experiment [1] came out at 7%; in experiment [2], 4%. {Gd^T}-GQWACSGDEYTWHCNYE (disulfide 5-14 (inferred); not fully specified (C-terminus); reading uncertain) [Compound ID 840] had a % bound in experiment [1] of 3%.

[dY][dH][dA][dC][dY][dQ][dA]G[dC][dW][dI][dW] (disulfide 4-9 (inferred); not fully specified (C-terminus)) [SEQ ID NO 163]: the % bound in experiment [1] is 53%; in experiment [2], 37%.

B1: SEQ ID NO 176 (peptide)
peptide: QWTCSGDEYTWHC[dN]YE
modifications: disulfide 4-13 (inferred); not fully specified (N-terminus); printed as QWTCSGDEYTWHCnYE
For B1, the % bound in experiment [1] and in experiment [2] was 2% each time. QWFCEMDEYGKWNCGMM (disulfide 4-14 (inferred)) [SEQ ID NO 81] gave a % bound in experiment [2] of 3%. In experiment [1], YHACYQAGCYIW (disulfide 4-9 (inferred)) [SEQ ID NO 107] had a % bound of 6%.

As to {Gd^T(3)}-GQWHCTTRFPHHY[Pen]LYG (disulfide 5-14; not fully specified (C-terminus)) [Compound ID 906], in experiment [1], the % bound turned out to be 5%. HWSCDLAMDNEWFCSTK (disulfide 4-14 (inferred)) [SEQ ID NO 84] gave a % bound in experiment [2] of 3%. {Gd^T″}-GK([Gly-Gd^T″])WHCTTLFPHHVCLYG (disulfide 5-14 (inferred)) [Compound ID 966]: in experiment [1], the % bound turned out to be 8%.

B2: SEQ ID NO 175 (peptide)
peptide: QWTCSGDEYTWH[dC]NYE
modifications: disulfide 4-13 (inferred); not fully specified (N-terminus); printed as QWTCSGDEYTWHcNYE
Turning to B2, the % bound in experiment [1] and in experiment [2] was 2% throughout.

B3: SEQ ID NO 166 (peptide)
peptide: QW[dT]CSGDEYTWHCNYE
modifications: disulfide 4-13 (inferred); not fully specified (N-terminus, C-terminus); printed as QWtCSGDEYTWHCNYE
For the molecule B3, the % bound in experiment [1] was found to be 3%; in experiment [2], 2%. On the same counts, the results for {Gd^T″}-GQWHCTTRFPHAYCLYG (disulfide 5-14 (inferred)) [Compound ID 878] are 9% and 8%. As for SWHCFLENHHWMCSDH (disulfide 4-13 (inferred)) [SEQ ID NO 68], the % bound in experiment [2] turned out to be 5%.

Molecule {Gd^T″}-GQWHCTTRFPHH[dT]CLYG (disulfide 5-14 (inferred); not fully specified (C-terminus)) [Compound ID 905] returned a % bound in experiment [2] of 6%.

Turning to YHACAQAGCWIW (disulfide 4-9 (inferred)) [SEQ ID NO 133], the % bound in experiment [1] was determined as 5%; in experiment [2], 4%. For SWYCNNGSYGQWHCEHR (disulfide 4-14 (inferred)) [SEQ ID NO 80], the % bound in experiment [2] came to 6%. In experiment [1], {Gd^T}-DWTCS[dL]DEYTWHCNYE (disulfide 4-13 (inferred); not fully specified (C-terminus); reading uncertain) [Compound ID 847] had a % bound of 7%. On the same count and under the same terms, to {Gd^T(3)}-GQWHCTTRFPHH[d1Nal]CLYG (disulfide 5-14; not fully specified (C-terminus)) [Compound ID 904] belongs 3%; to {Gd^T″}-GK([Gly-Gd^T″])WHCTTYFPHHYCL[Dip]G (disulfide 5-14 (inferred); not fully specified) [Compound ID 967], 4%.

B4: SEQ ID NO 173 (peptide)
peptide: QWTCSGDEYT[dW]HCNYE
modifications: disulfide 4-13 (inferred); not fully specified (N-terminus); printed as QWTCSGDEYTwHCNYE
For B4, the % bound in experiment [1] is 4%; in experiment [2], 5%. As to GWSCHSMDMQWHCDFS (disulfide 4-13 (inferred)) [SEQ ID NO 67], in experiment [2], the % bound was 5%. {Gd^T″}-GQWTCSGDEYTWACNYE (disulfide 5-14 (inferred); not fully specified (C-terminus)) [Compound ID 833] returned a % bound in experiment [1] of 4%.

B5: SEQ ID NO 169 (peptide)
peptide: QWTCSG[dD]EYTWHCNYE
modifications: disulfide 4-13 (inferred); not fully specified (N-terminus); printed as QWTCSGdEYTWHCNYE
With B5, the % bound in experiment [1] was found to be 4%. In turn, GWTCSQPGANVWNCTMQ (disulfide 4-14 (inferred)) [SEQ ID NO 85] registered a % bound in experiment [2] of 3%. Regarding {Gd^T″}-GQWTCSGDEYAWHCNY[dE] (disulfide 5-14 (inferred); not fully specified (C-terminus)) [Compound ID 832], the % bound in experiment [1] came out at 4%. Still for that read-out and setting: to {Gd^T″}-GQWHCTTD[Phe(4-NH2)](Gd^T″)PHHYCLYG (disulfide 5-14 (inferred)) [Compound ID 885] belongs 9%.

B6: SEQ ID NO 168 (peptide)
peptide: QWTC[dS]GDEYTWHCNYE
modifications: disulfide 4-13 (inferred); not fully specified (N-terminus); printed as QWTCsGDEYTWHCNYE
For B6, the % bound in experiment [1] was found to be 2%; in experiment [2] it was 3%. In turn, {Gd^T″}-GQWHCTDRFPHHYCLYG (disulfide 5-14 (inferred)) [Compound ID 936] gave a % bound in experiment [1] of 5%. On to PWWCHEMPSMCFGF (disulfide 4-11 (inferred)) [SEQ ID NO 3], for which the % bound in experiment [2] turned out to be 2%. Regarding {Gd^T″}-DWTCS[dS]DEYTWHCNYE (disulfide 4-13 (inferred); not fully specified (C-terminus)) [Compound ID 836], the % bound in experiment [1] was 8%. As for GWACNTTSKGDWECTNL (disulfide 4-14 (inferred)) [SEQ ID NO 83], in experiment [2], the % bound came to 3%. For the molecule Cbz-GQWHCTK(Gd^T″)RFPHHYCLYG (disulfide 5-14 (inferred)) [Compound ID 940], the % bound in experiment [1] is 8%. {Gd^T″}-GQWHCTTRFPHH[dR]CLYG (disulfide 5-14 (inferred); not fully specified (C-terminus)) [Compound ID 902]: in experiment [2], the % bound came out at 7%. On the same count and under the same terms, next, LWTCSMDRNYDWVCGEK (disulfide 4-14 (inferred)) [SEQ ID NO 82]: 3%; RWSCVLDADGWVCSDN (disulfide 4-13 (inferred)) [SEQ ID NO 66]: 6%. As to {Gd^T″}-GQWHCTTD[Phe(4-CN)]PHHYCLYG (disulfide 5-14 (inferred)) [Compound ID 883], the % bound in experiment [1] was 2%; in experiment [2], 8%. GQWTCSADEYTWHCNYE (disulfide 5-14 (inferred)) [SEQ ID NO 142]: the % bound in experiment [1] turned out to be 6%. Molecule KWECVHTKGEWYCETK (disulfide 4-13 (inferred)) [SEQ ID NO 65] returned a % bound in experiment [2] of 7%.

Turning to {Gd^T″}-GQWHCTTD[Phe(3,4-(OMe)2)]PHHYCLYG (disulfide 5-14 (inferred)) [Compound ID 893], the % bound in experiment [1] worked out at 2%; in experiment [2] it was 4%.

B7: SEQ ID NO 171 (peptide)
peptide: QWTCSGDE[dY]TWHCNYE
modifications: disulfide 4-13 (inferred); not fully specified (N-terminus); printed as QWTCSGDEyTWHCNYE
In experiment [1], B7 displayed a % bound of 6%.

B8: SEQ ID NO 165 (peptide)
peptide: Q[dW]TCSGDEYTWHCNYE
modifications: disulfide 4-13 (inferred); not fully specified (N-terminus, C-terminus); printed as QwTCSGDEYTWHCNYE
In the case of B8, the values for the % bound in experiment [1] and in experiment [2] were 4% and 2%, respectively.
